According to paper PMC3327674, “Structural and Functional Characterization of Mature Forms of Metalloprotease E495 from Arctic Sea-Ice Bacterium Pseudoalteromonas sp. SM495” (PLoS ONE, 2012):

Target: C-phycocyanin, Q54715;Q54714
Assay: SPR
Settings: chain shown with the change, 2 µM analyte, 20 µl/min, 25°C, CPC-coated chip, read off a plot

| Binder | response (parent: est. 57) [RU] | response (parent: est. 53) [RU] |
| --- | --- | --- |
| GST-fused PPC1 domain of metalloprotease E495 F5A (protein) EQLFATLDVPAGASNLVFNTNGGSGDADLYVRFGSKPTLSTYDCNSTTSTSTESCSIGSAQAGTYYVMVEA | 33 | – |
| GST-fused PPC2 domain of metalloprotease E495 F5A (protein) GWTRATQNLDAGYSSLDISMAGGSGDADLYVNFGSASSTSSYECRPYKNGNVETCTIENPQAGTWYIDLQG | – | 35 |
